Measurements: the MegaScale stability set (Tsuboyama et al. 2023)

B1: 2M8U (parent)
chain: TKAQVIEAFKVFDRDGNGYVTVDYLRKVLNELGDMMPADEIEEMIYEADPQNSGYVQYETFVGMLFL

Variants of: B1
Experiment: folding stability dG (cDNA display proteolysis); higher = more stable
Details: PBS, room temperature

First: TKAQVIEAFKVFDRDGNGYVTVDYLRKVLNELGDMMPADEIEEMIYEADPQNSGYFQYETFVGMLFL [V56F]
Second: TKAQVIEAFKVFDRDGNGYVTVDYLRKVLNELGDMMPADEIEEMIYEADPQNSGYWQYETFVGMLFL [V56W]
The “folding stability dG” value of the first is higher: 2.62 kcal/mol for the first, 2.49 kcal/mol for the second.

Going from TKAQVIEAFKVFDRDGNGYVTVDHLRKVLNELGDMMPADEIEEMIYEADPQNSGYVQYETFVGMLFL [Y24H] to TKAQVIEAFKVFDRDGNGYVTVDTLRKVLNELGDMMPADEIEEMIYEADPQNSGYVQYETFVGMLFL [Y24T], the “folding stability dG” value rises from 4.05 kcal/mol to 4.42 kcal/mol.

Compared with TKAQVIEAFKVFDRDGNGYVTVDYLRKVLNELGPMMPADEIEEMIYEADPQNSGYVQYETFVGMLFL [D34P], TKAQVIEAFKVFDRDGNGYVTVDYLRKVLNELGNMMPADEIEEMIYEADPQNSGYVQYETFVGMLFL [D34N] is lower in “folding stability dG” value: 3.89 kcal/mol for the first, 3.58 kcal/mol for the second.

First: TKAQVIEAFKVFDRDGNGYVTVDYLRKVLNELGWMMPADEIEEMIYEADPQNSGYVQYETFVGMLFL [D34W]
Second: TKAQVIEAFKVFDRDGNGYVTVDYLRKVLNELGAMMPADEIEEMIYEADPQNSGYVQYETFVGMLFL [D34A]
The “folding stability dG” value of the first is higher: 4.49 kcal/mol for the first, 3.54 kcal/mol for the second.

Compared with TKAQVIEAFKVFDRDGNGYVTVDYLRKVLNELGDMMPADEIEEMHYEADPQNSGYVQYETFVGMLFL [I45H], TKAQVIEAFKVFDRDGNGYVTVDYLRKVLNELGDMMPADEIEEMEYEADPQNSGYVQYETFVGMLFL [I45E] is higher in “folding stability dG” value: 2.08 kcal/mol for the first, 2.15 kcal/mol for the second.

First: TKAQVIEAFKVFDRDGNGYVTVDYLRKVLNELGDMMPADEIEEMDYEADPQNSGYVQYETFVGMLFL [I45D]
Second: TKAQVIEAFKVFDRDGNGYVTVDYLRKNLNELGDMMPADEIEEMIYEADPQNSGYVQYETFVGMLFL [V28N]
The “folding stability dG” value of the first is higher: 2.39 kcal/mol for the first, 1.84 kcal/mol for the second.

First: TKAQVIEAFKVFDMDGNGYVTVDYLRKVLNELGDMMPADEIEEMIYEADPQNSGYVQYETFVGMLFL [R14M]
Second: TKAQVIEAFKVFDRDGNGYVTVDYLRKVLNELGDMMPADEIETMIYEADPQNSGYVQYETFVGMLFL [E43T]
The “folding stability dG” value of the first is lower: 3.69 kcal/mol for the first, 3.73 kcal/mol for the second.

First: TKAQVIEAFKTFDRDGNGYVTVDYLRKVLNELGDMMPADEIEEMIYEADPQNSGYVQYETFVGMLFL [V11T]
Second: TKAQVIEAFKMFDRDGNGYVTVDYLRKVLNELGDMMPADEIEEMIYEADPQNSGYVQYETFVGMLFL [V11M]
The “folding stability dG” value of the first is higher: 3.35 kcal/mol for the first, 3.24 kcal/mol for the second.

Compared with TKAQVIEAFKVFDRDGNGYVTVDYLRKVLNELGDMMPADEIEEMIYRADPQNSGYVQYETFVGMLFL [E47R], TKAQVIEAFKVFDRDGNGYVTVDYLRKVLNELGDMMPADEIEEMIYGADPQNSGYVQYETFVGMLFL [E47G] is lower in “folding stability dG” value: 4.15 kcal/mol for the first, 3.5 kcal/mol for the second.

Compared with TKAQVIEAFKVFDRDGNGYVTVDYLRKVLNELGDMMPACEIEEMIYEADPQNSGYVQYETFVGMLFL [D39C], TKAQVIEAFKVFDRDGNGYVTVDYLRKVLNELGDMMPAMEIEEMIYEADPQNSGYVQYETFVGMLFL [D39M] is higher in “folding stability dG” value: 3.74 kcal/mol for the first, 3.92 kcal/mol for the second.

First: TKAQVIEAFKVFDRDGNGYVTVDYLRKVLNELGDMMPADEIEEMIYEADPQNSGYVQYETFVGMTFL [L65T]
Second: TKAQVIEAFKVFDRDGNGYVTVDYLRKVLNELGDMMPADEIEEMIYEADPQNSGYVQYETFVGMYFL [L65Y]
The “folding stability dG” value of the first is lower: 1.96 kcal/mol for the first, 3.04 kcal/mol for the second.

Going from TKAQVIEAFKVFDRDGNGYVTVDYLRKVLNELGDMMPADEIEEMIYEADPQNSGYVQYETFGGMLFL [V62G] to TKAQVIEAFKVFDRDGNGYVTVDYLRKVLNELGDMMPADEIEEMIYEADPQNSGYVQYETFPGMLFL [V62P], the “folding stability dG” value falls from 1.93 kcal/mol to 1.22 kcal/mol.

Going from TKAQVIEAFKVFDRDGNGYVTVDYLRKVLNELGDMMPADEIEEMIYEADPQNSGYVQYETFCGMLFL [V62C] to TKAQVIEAFKVFDRDGNGYVTVDYLRKVLNELGDMMPADEIEEMIYEADPQNSGYVQYETFIGMLFL [V62I], the “folding stability dG” value rises from 2.48 kcal/mol to 3.29 kcal/mol.

Going from TKAQVIEAFKVMDRDGNGYVTVDYLRKVLNELGDMMPADEIEEMIYEADPQNSGYVQYETFVGMLFL [F12M] to TKAQVIEAFKVPDRDGNGYVTVDYLRKVLNELGDMMPADEIEEMIYEADPQNSGYVQYETFVGMLFL [F12P], the “folding stability dG” value falls from 3.33 kcal/mol to 1.89 kcal/mol.

Compared with TKAQVIEAFKVEDRDGNGYVTVDYLRKVLNELGDMMPADEIEEMIYEADPQNSGYVQYETFVGMLFL [F12E], TKALVIEAFKVFDRDGNGYVTVDYLRKVLNELGDMMPADEIEEMIYEADPQNSGYVQYETFVGMLFL [Q4L] is higher in “folding stability dG” value: 3.15 kcal/mol for the first, 3.21 kcal/mol for the second.

First: TKAQVIEAEKVFDRDGNGYVTVDYLRKVLNELGDMMPADEIEEMIYEADPQNSGYVQYETFVGMLFL [F9E]
Second: TKAQVIEAFKVFDRDGNGYVTVDYLPKVLNELGDMMPADEIEEMIYEADPQNSGYVQYETFVGMLFL [R26P]
The “folding stability dG” value of the first is higher: 1.96 kcal/mol for the first, 1.55 kcal/mol for the second.

First: TKAQVIEAFKVFDRDGNGYVTVDYLRKVLNELGDMMPADEIEEMIGEADPQNSGYVQYETFVGMLFL [Y46G]
Second: TKAQVIEAFKVFDRDGNGYVTVDYLRKVLNELGDMMPADEIEEMICEADPQNSGYVQYETFVGMLFL [Y46C]
The “folding stability dG” value of the first is lower: 3.44 kcal/mol for the first, 3.46 kcal/mol for the second.

Going from TKAQVIEAFKVFDRDGNGYVTVDYLRKVLNEDGDMMPADEIEEMIYEADPQNSGYVQYETFVGMLFL [L32D] to TKAQVIKAFKVFDRDGNGYVTVDYLRKVLNELGDMMPADEIEEMIYEADPQNSGYVQYETFVGMLFL [E7K], the “folding stability dG” value rises from 1.84 kcal/mol to 3.1 kcal/mol.

First: TKAQVIQAFKVFDRDGNGYVTVDYLRKVLNELGDMMPADEIEEMIYEADPQNSGYVQYETFVGMLFL [E7Q]
Second: TKAQVIEAFKVFDRDGNGYVTVDYLRKVLNALGDMMPADEIEEMIYEADPQNSGYVQYETFVGMLFL [E31A]
The “folding stability dG” value of the first is lower: 2.96 kcal/mol for the first, 3.47 kcal/mol for the second.

Compared with TKAQVIEAFKVFDRDGNGYVTVDYLRKVLNELGDMMPADEIEEMIYEADPQNSGKVQYETFVGMLFL [Y55K], TKAQVIEAFKVFDRDGNGYVTVDYLRKVLNELGDMMPADEIEEMIYEADPKNSGYVQYETFVGMLFL [Q51K] is higher in “folding stability dG” value: 3.25 kcal/mol for the first, 3.45 kcal/mol for the second.
